Patent publication US20260167699A1 (Chugai, published 2026)
Positions count from the first letter of the chain named.

T1: FcγRIIa(H) (human, UniProt P12318 34-217)
T1 construct: extracellular domain; also called 2aH
T1 sequence: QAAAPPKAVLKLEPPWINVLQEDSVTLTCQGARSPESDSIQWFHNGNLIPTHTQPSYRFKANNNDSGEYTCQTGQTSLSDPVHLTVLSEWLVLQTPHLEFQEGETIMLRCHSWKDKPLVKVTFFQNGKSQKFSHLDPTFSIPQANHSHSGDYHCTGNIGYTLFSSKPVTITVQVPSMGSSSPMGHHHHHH

T2: FcγRIIa(R) (human, UniProt P12318 34-217)
T2 construct: extracellular domain; also called 2aR
T2 sequence: T1 sequence with H134R

T3: FcγRIIb (human, UniProt P31994 43-217)
T3 construct: extracellular domain; also called 2b
T3 sequence: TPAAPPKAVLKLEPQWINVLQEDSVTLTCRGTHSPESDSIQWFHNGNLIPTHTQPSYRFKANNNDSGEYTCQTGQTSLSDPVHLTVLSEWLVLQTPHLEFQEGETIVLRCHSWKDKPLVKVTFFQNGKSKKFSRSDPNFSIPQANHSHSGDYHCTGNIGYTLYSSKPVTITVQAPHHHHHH

B1: GpH7-A5/GpH7-B3 variant Y296_18N/GpL16-k0 (antibody, human IgG1, kappa)
heavy 1: not shown
heavy 2: not shown
light: DIVMTQSPLSLPVTPGEPASISCQASESLVHSNRNTYLHWYLQKPGQSPQLLIYKVSNRFSGVPDRFSGSGSGTDFTLKISRVEAEDVGVYYCSQNTHVPPTFGQGTKVEIERTVAAPSVFIFPPSDEQLKSGTASVVCLLNNFYPREAKVQWKVDNALQSGNSQESVTEQDSKDSTYSLSSTLTLSKADYEKHKVYACEVTHQGLSSPVTKSFNRGEC
notes: He Ab: heterodimerized IgG1, one H chain mutated
B2: GpH7-A5/GpH7-B3 variant Y300_11K/GpL16-k0 (antibody, human IgG1, kappa)
heavy 1: not shown
heavy 2: not shown
light: B1 light
notes: as for B1
B3: GpH7-A5/GpH7-B3 variant Y300_13S/GpL16-k0 (antibody, human IgG1, kappa)
heavy 1: not shown
heavy 2: not shown
light: B1 light
notes: as for B1
B4: GpH7-A5/GpH7-B3 variant Y300_08L/GpL16-k0 (antibody, human IgG1, kappa)
heavy 1: not shown
heavy 2: not shown
light: B1 light
notes: as for B1
B5: GpH7-A5/GpH7-B3 variant Y300_02A/GpL16-k0 (antibody, human IgG1, kappa)
heavy 1: not shown
heavy 2: not shown
light: B1 light
notes: as for B1
B6: GpH7-A5/GpH7-B3 variant Y300_03V/GpL16-k0 (antibody, human IgG1, kappa)
heavy 1: not shown
heavy 2: not shown
light: B1 light
notes: as for B1
B7: GpH7-A5/GpH7-B3 variant Y300_04F/GpL16-k0 (antibody, human IgG1, kappa)
heavy 1: not shown
heavy 2: not shown
light: B1 light
notes: as for B1
B8: GpH7-A5/GpH7-B3 variant Y300_14T/GpL16-k0 (antibody, human IgG1, kappa)
heavy 1: not shown
heavy 2: not shown
light: B1 light
notes: as for B1
B9: GpH7-A5/GpH7-B3 variant Y296_19Q/GpL16-k0 (antibody, human IgG1, kappa)
heavy 1: not shown
heavy 2: not shown
light: B1 light
notes: as for B1
B10: GpH7-A5/GpH7-B3 variant Y300_07I/GpL16-k0 (antibody, human IgG1, kappa)
heavy 1: not shown
heavy 2: not shown
light: B1 light
notes: as for B1
B11: GpH7-A5/GpH7-B3 variant Y296_20W/GpL16-k0 (antibody, human IgG1, kappa)
heavy 1: not shown
heavy 2: not shown
light: B1 light
notes: as for B1
B12: GpH7-A5/GpH7-B3 variant Y300_01G/GpL16-k0 (antibody, human IgG1, kappa)
heavy 1: not shown
heavy 2: not shown
light: B1 light
notes: as for B1
B13: GpH7-A5/GpH7-B3 variant Y300_10E/GpL16-k0 (antibody, human IgG1, kappa)
heavy 1: not shown
heavy 2: not shown
light: B1 light
notes: as for B1
B14: GpH7-A5/GpH7-B3 variant Y300_09D/GpL16-k0 (antibody, human IgG1, kappa)
heavy 1: not shown
heavy 2: not shown
light: B1 light
notes: as for B1
B15: GpH7-A5/GpH7-B3 variant Y300_06M/GpL16-k0 (antibody, human IgG1, kappa)
heavy 1: not shown
heavy 2: not shown
light: B1 light
notes: as for B1

The binders below were run against T1, FcγRIIa(H) (assay: SPR, relative to GpH7-A5/GpH7-B3/GpL16-k0 =100).
With B1 the “He/Con 2aH” value was 101%. With B2 the “He/Con 2aH” value was 74.2%. With B3 the “He/Con 2aH” value was 97.8%. With B4 the “He/Con 2aH” value was 120%. B5 was tested, and the “He/Con 2aH” value was 104%. With B6 the “He/Con 2aH” value was 109%. In the case of B7, the “He/Con 2aH” value is reported as 103%. With B8 the “He/Con 2aH” value was 104%. In the case of B9, the “He/Con 2aH” value is reported as 94.3%. In the case of B10, the “He/Con 2aH” value is reported as 120%. In the case of B11, the “He/Con 2aH” value is reported as 95.4%. With B12 the “He/Con 2aH” value was 82.6%. In the case of B13, the “He/Con 2aH” value is reported as 108%. For B14, the “He/Con 2aH” value was 101%. For B15, the “He/Con 2aH” value was 116%.

What follows are binders tested against T2, FcγRIIa(R) (assay: SPR, relative to GpH7-A5/GpH7-B3/GpL16-k0 =100).
With B1 the “He/Con 2aR” value was 99.6%. For B2, the “He/Con 2aR” value was 73.1%. For B3, the “He/Con 2aR” value was 72.4%. For B4, the “He/Con 2aR” value was 96.9%. In the case of B5, the “He/Con 2aR” value is reported as 92.9%. With B6 the “He/Con 2aR” value was 96.8%. With B7 the “He/Con 2aR” value was 103%. With B8 the “He/Con 2aR” value was 78.6%. In the case of B9, the “He/Con 2aR” value is reported as 97.9%. In the case of B10, the “He/Con 2aR” value is reported as 90.9%. With B11 the “He/Con 2aR” value was 105%. In the case of B12, the “He/Con 2aR” value is reported as 66.6%. B13 was tested, and the “He/Con 2aR” value was 127%. B14 was tested, and the “He/Con 2aR” value was 105%. With B15 the “He/Con 2aR” value was 105%.

Each binder was assayed against T3, FcγRIIb (assay: SPR, relative to GpH7-A5/GpH7-B3/GpL16-k0 =100).
For B1, the “He/Con 2b” value was 92.8%. With B2 the “He/Con 2b” value was 67.4%. B3 was tested, and the “He/Con 2b” value was 70.4%. For B4, the “He/Con 2b” value was 96.1%. With B5 the “He/Con 2b” value was 90.5%. With B6 the “He/Con 2b” value was 96.5%. With B7 the “He/Con 2b” value was 106%. B8 was tested, and the “He/Con 2b” value was 72.7%. B9 was tested, and the “He/Con 2b” value was 90.5%. With B10 the “He/Con 2b” value was 97.4%. B11 was tested, and the “He/Con 2b” value was 105%. For B12, the “He/Con 2b” value was 63.2%. B13 was tested, and the “He/Con 2b” value was 175%. For B14, the “He/Con 2b” value was 122%. With B15 the “He/Con 2b” value was 110%.

The binders below were run against T4, FcγRIa (human, UniProt P12314 16-292) (assay: SPR, relative to GpH7-A5/GpH7-B3/GpL16-k0 =100).
T4 construct: extracellular domain; also called 1a
T4 sequence (P12314 other isoform, or with tags, fused parts or gaps): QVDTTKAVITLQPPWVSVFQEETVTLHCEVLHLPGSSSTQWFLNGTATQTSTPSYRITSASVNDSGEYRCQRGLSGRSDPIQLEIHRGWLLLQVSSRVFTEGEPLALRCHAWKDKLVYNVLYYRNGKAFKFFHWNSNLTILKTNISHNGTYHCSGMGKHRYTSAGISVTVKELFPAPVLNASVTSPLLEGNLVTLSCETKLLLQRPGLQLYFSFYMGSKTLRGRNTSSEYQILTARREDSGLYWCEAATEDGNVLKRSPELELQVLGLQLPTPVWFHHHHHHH
With B1 the “He/Con 1a” value was 102%. With B2 the “He/Con 1a” value was 101%. With B3 the “He/Con 1a” value was 105%. B4 was tested, and the “He/Con 1a” value was 107%. For B5, the “He/Con 1a” value was 106%. For B6, the “He/Con 1a” value was 110%. B7 was tested, and the “He/Con 1a” value was 102%. With B8 the “He/Con 1a” value was 105%. With B9 the “He/Con 1a” value was 108%. In the case of B10, the “He/Con 1a” value is reported as 102%. For B11, the “He/Con 1a” value was 107%. In the case of B12, the “He/Con 1a” value is reported as 110%. With B13 the “He/Con 1a” value was 108%. With B14 the “He/Con 1a” value was 106%. In the case of B15, the “He/Con 1a” value is reported as 106%.
